Measurements from US20160271244A1.

Target: Env (gp120) of HIV-1 JRCSF.N160K (HIV-1), P20871
Assay: cell-based or functional assay

B1: CH01 (antibody, V domains shown)
VH: EVQLVESGANVVRPGGSLRLSCKASGFIFENFGFSWVRQAPGKGLQWVAGLNWNGGDTRYADSVKGRFRMSRDNSRNFVYLDMDKVGVDDTAFYYCARGTDYTIDDAGIHYQGSGTFWYFDLWGRGTLVSVSS
VL: EIVLTQSPGTLSLSPGERATLSCRASHNVHPKYFAWYQQKPGQSPRLLIYGGSTRAAGIPGKFSGSGSGTDFTLTISRVDPEDFAVYYCQQYGGSPYTFGQGTKVEI
Which IC50 (virus neutralization) does the source give for B1 here?
The IC50 (virus neutralization) was greater than 50 µg/mL.

What about the IC80 (virus neutralization) of the same binder?
Its IC80 (virus neutralization) is greater than 50 µg/mL.
